Paper PMC5812564

Assays:
[1] = molecular target: S100A1 (human); assay: other fluorescence titration; intrinsic tryptophan fluorescence of 3.50 μM S100A1, S100B added from 0 to 42 μM in steps of 2 μM; excitation 295 nm, emission read at 351 nm
[2] = molecular target: S100A1 (human); assay: NMR titration; 1H-15N HSQC, 15N-labelled protein with the unlabelled partner added, each pair in both directions, molar ratios 1:0 and 1:1 (1:0.66 and 1:1 for Kd); 25 °C; 20 mM Tris, 5 mM CaCl2, 5 mM DTT, 50 mM (NH4)2SO4, pH 7.2; Kd as the mean over selected residues
[3] = molecular target: RAGE V domain (UniProt Q15109)
[4] = molecular target: S100A1 as used in the titrations with the RAGE V domain (mutant-S100A1 (C85S) by the introduction) (human); assay: NMR titration; 1H-15N HSQC, 15N-labelled protein with the unlabelled partner added, each pair in both directions, molar ratios 1:0 and 1:1 (1:0.66 and 1:1 for Kd); 25 °C; 20 mM Tris, 5 mM CaCl2, 5 mM DTT, 50 mM (NH4)2SO4, pH 7.2; Kd as the mean over selected residues

For S100B (natural protein), the Kd [1] was 1.9 µM and the Kd [2] was 5.9 µM.

For S100A1 (natural protein), the WST-1 proliferation assay, serum-starved SW480 cells (RAGE highly expressed) treated for 48 h with 10, 50 and 100 nM S100A1; viable cell count against the serum-free control [3] was 1.53 fold and the WST-1 proliferation assay, serum-starved SW480 cells treated for 48 h with 100 nM S100A1 and 100 nM S100B; viable cell count against the serum-free control [3] was 1.39 fold.

Substance “RAGE V domain (from UniProt Q15109 24-128) (domain or fragment)” has a Kd [4] of 6.13 µM.
